Laboratory results reported in patent US20250011448A1 (STAIDSON BIOPHARMA, published 2025).
Where a chain is given by its changes, count along the chain named.

T1: human TNFR2 expressed on cells (Expi293 cells stably expressing huTNFR2) (human, UniProt P20333 23-461)
T1 construct: whole, on cells; Also used here as the target of the Treg assay (native TNFR2 on human primary Treg cells); also called huTNFR2 expressed cells; Expi293-TNFR2 cells
T1 sequence (looked up): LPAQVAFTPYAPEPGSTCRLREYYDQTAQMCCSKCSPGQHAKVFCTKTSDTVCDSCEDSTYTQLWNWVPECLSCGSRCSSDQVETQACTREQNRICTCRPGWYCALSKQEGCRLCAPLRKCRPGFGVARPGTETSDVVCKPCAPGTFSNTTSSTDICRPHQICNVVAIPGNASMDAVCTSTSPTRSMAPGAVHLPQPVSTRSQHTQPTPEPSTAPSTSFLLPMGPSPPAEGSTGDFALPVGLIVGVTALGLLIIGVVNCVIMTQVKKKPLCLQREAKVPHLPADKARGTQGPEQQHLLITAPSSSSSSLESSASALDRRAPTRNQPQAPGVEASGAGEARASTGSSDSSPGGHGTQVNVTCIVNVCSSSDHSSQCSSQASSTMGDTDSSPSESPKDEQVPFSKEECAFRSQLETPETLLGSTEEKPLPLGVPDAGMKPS

T2: human TNFR2 extracellular domain fused to human IgG1 Fc (human, UniProt P20333 23-257)
T2 construct: also called TNFR2-huFc; huTNFR2; not shown: C-terminal human IgG1 Fc
T2 sequence: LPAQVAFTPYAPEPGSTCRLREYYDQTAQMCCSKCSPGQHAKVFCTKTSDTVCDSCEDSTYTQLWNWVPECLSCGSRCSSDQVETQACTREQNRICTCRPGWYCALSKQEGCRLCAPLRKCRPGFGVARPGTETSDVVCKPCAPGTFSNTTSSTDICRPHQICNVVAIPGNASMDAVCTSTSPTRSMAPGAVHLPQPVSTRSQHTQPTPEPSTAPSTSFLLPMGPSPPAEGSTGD

B1: 29G3 chimeric anti-TNFR2 antibody (antibody, V domains shown)
VH: EVMLVESGGASVKPGGSLKLSCAASGFTFSNFAMSWVRQTPEKRLEWVATIRSGDNYSYYSDNVKGRFTISRDNARNTLYLQMSSLRSKDTSIYYCARNWDKVFDYWGQGTTLTVSS
VL: DIVLTQSPASLAVSLGQRATISCRASESVDSYGYSFMHWYQQKPGQPPKLLIYRASNLKSGIPARFSGSGSRTDFTLTINPVEADDVATYYCQQSNEDHTFGGGTKLEIK
notes: Chimeric: mouse variable domains with human constant regions, made as recombinant IgG1
B2: 85G8.4 chimeric anti-TNFR2 antibody (antibody, V domains shown)
VH: EVQLQQSGPELVKPGASVKISCKTSGYTFTDFNMDWVKQSHGKSLEWIGYINPNNGDAAYNQKFKSKATLTVDKSSNTAYMELHSLTSDDSAVYYCARWGWAFAYWGQGTLVTVSA
VL: DIVMTQSHKIMSTSVGDRVSITCKASQDVKTAVAWYQQKPGQSPKLLIYATSYRYTGVPDRFTGSGSGTDFTFTISTVQAEDLAVYYCQQHYSIPYTFGGGTKLEIK
notes: as for B1
B3: 15H10 chimeric anti-TNFR2 antibody (antibody, V domains shown)
VH: DVQLQESGPGLVTPSQSLSLTCSVTGYSITSGYYWNWIRQFPGNKLEWMGYITYDGNNNYNPSLKSRFSITRDTSKNQFFLKLNSVTSEDTATYYCARGDYGDSAMDYWGQGTSVTVSS
VL: EIVLTQSPAITAASLGQKVTITCSASSGVNYMHWYQQKSGTSPKPWIYEISKLASGVPARFSGSGSGTSYSLTISSMEAEDAAIYYCQQWNYPLITFGAGTKVELK
notes: as for B1
B4: 11C1 chimeric anti-TNFR2 antibody (antibody, V domains shown)
VH: B3 VH with Q5R, F41I, N61D, S66N, F68I, K82T
VL: B3 VL with G28S, N30S, T73I, V103L
notes: as for B1

What follows are binders tested against T1, human TNFR2 expressed on cells (Expi293 …) (assay: flow cytometry: inhibition of binding of 10 nM Alexa Fluor 647 human TNFα to Expi293 cells expressing huTNFR2).
Procedure: Expi293 cells stably expressing huTNFR2 were incubated with anti-TNFR2 antibodies for 30 minutes at 4° C. […] Cells were washed and acquired by flow cytometry with Attune. Data were analyzed with FlowJo software. TNFα binding is represented as MFI.
As shown in Table 10 and FIG. 4B, the anti-TNFR2 chimeric antibodies, 51B5, 85G8.4, 29G3, 11C1, and 15H10 inhibited soluble TNFα binding to TNFR2-expressing Expi293 cells dose-dependently and potently.
Binder B1 has an IC50 of 0.275 nM.
B2 gave an IC50 of 1.57 nM.
B3 showed an IC50 of 3.37 nM.
For B4, the IC50 was 2.51 nM.

Each binder was assayed against T1, human TNFR2 expressed on cells (Expi293 …) (assay: flow cytometry on Expi293 cells stably expressing huTNFR2).
Procedure: The coding sequence of huTNFR2 (Uniprot, P20333) was cloned into a lentiviral vector and the virus was packaged according to the instruction of the virus packaging kit (Lenti-X™ Packaging Single Shots, Cat #631275, Takada). The Expi293 cells were transduced with the recombinant virus and selected by puromycin. The cell line stably expressing huTNFR2 was incubated with anti-TNFR2 antibodies in PBS with 0.5% BSA, 1 mM EDTA, and 0.1% sodium azide (FACS buffer) for 30 minutes at 4° C. The cells were washed, and then incubated with 10 nM phycoerythrin (PE) conjugated anti-Human Fe Ab (Biolegend, cat #409304) for 20 minutes at 4° C. Cells were washed and then […] by flow cytometry with Attune (ThermoFisher Scientific). Data were analyzed with FlowJo software. Antibody binding is represented as median fluorescence intensity (MFI).
As shown by the results in Table 9 and FIG. 4A, the anti-TNFR2 antibodies, 51B5, 102E4, 85G8.4, 29G3, 11C1, and 15H10 bind to Expi293-TNFR2 cells dose-dependently and potently.
Binder B1 has an EC50 of 0.654 nM.
B2 was tested, and the EC50 was 1.47 nM.
In the case of B3, the EC50 is reported as 2.52 nM.
In the case of B4, the EC50 is reported as 2.04 nM.

Each binder was assayed against T2, human TNFR2 extracellular domain fused … (assay: blocking ELISA: antibody pre-mixed with huTNFR2, binding of huTNFR2 to coated human TNFα read out).
Procedure: 96-well round bottom ELISA plates were coated overnight at 4° C. with 50 μL/well of 0.5 μg/mL human TNFα recombinant protein (R&D system, Cat #210-TA-100) in coating buffer. After removing the coating solution, blocking buffer was added into the plates followed by incubation at room temperature for 1 hour in order to block unspecific binding. During the blocking period, hybridoma antibodies samples were mixed with 0.5 μg/mL TNFR2-huFc at a 1:1 volume ratio and incubated at room temperature for another 1.5 hours. Then 50 μL/well of antigen-antibody mix solution was transferred into TNFα coated wells and incubated at room temperature for 1.5 hours. Plates were then washed 5 times with wash buffer. Then, 50 μL/well of goats anti-human IgG Fc-AP (Southern Biotech, cat #2014-04) at 1:2000 dilution in assay buffer was added, incubated at room temperature for 1 hour, washed 4 times with wash buffer and developed for 30 minutes with 50 μL/well of pNPP substrate. Plates were analyzed with a Synergy HT (Bio-TEK) at 405 nm. Parental hybridomas with the desired human and cynoTNFR2 binding as well as the ability to block human TNFR2 and human TNFα binding were prioritized for subcloning and further characterization. Subcloning was carried out with limited dilution and visual inspection was performed to ensure clonality. Hybridoma subclones were screened with the same binding and blocking assays and selected positive hits were cryopreserved.
TNFR2 blocking by purified recombinant chimeric antibodies: Human TNFR2 blocking ELISA was performed on purified recombinant chimeric antibodies following the same protocol as described above, except that 50 μL/well of serial dilution of purified antibodies (starting at 10 μg/mL, 1:3 dilution) in assay buffer was added into the reaction. The blocking IC₅₀ value represents the antibody concentration that inhibited 50% of huTNFR2 or cynoTNFR2 binding to coated human TNFα or cynomolgus monkey TNFα.
B1 gave an IC50 of 0.505 nM.
For B2, the IC50 was 0.583 nM.
B3 was tested, and the IC50 was 0.584 nM.
B4 showed an IC50 of 0.723 nM.
